Reference: doi:10.1101/2023.04.08.536109

Molecular target: Sulfolobus acidocaldarius GPN-loop GTPase Saci1281 (SaGPN) (Sulfolobus acidocaldarius)
Assay: SEC

Substance: Sulfolobus acidocaldarius GPN-loop GTPase Saci1281 (SaGPN) (enzyme)
- stoichiometry N: 2
